One molecule from article PMC9435672, “Structure of angiogenin dimer bound to double-stranded RNA” can be followed below.

This data set addresses angiogenin H114A (hAng, RNase 5) (Homo sapiens, UniProt P03950 25-147, H138A). The data set is described as follows: X-ray crystallography; sequence-independent backbone contacts except Arg24 (C38, C32); RNA does not reach active site; crystals at 277 K; Complex: 20 mM Tris pH 8.0, 120 mM NaCl, on ice 30 min, RNA:protein 1.2:1; crystallization reservoir 200 mM NaCl, 20% PEG 6000, 100 mM HEPES pH 7.0, 277 K. Particulars: protein: recombinant; tags: none stated (pET-26b(+)); chain copies: 2; self-duplex of 2 identical strands, blunt; designed as stem-loop but duplex in crystal.

Chain of angiogenin H114A (hAng, RNase 5) (P03950 25-147 H138A): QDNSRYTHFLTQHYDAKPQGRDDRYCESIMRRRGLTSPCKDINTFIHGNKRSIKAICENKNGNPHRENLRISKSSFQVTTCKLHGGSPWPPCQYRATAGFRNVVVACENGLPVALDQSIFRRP

B1: N19-RNA duplex (dsRNA)
RNA 1: GCCCGCCUGUCACGCGGGC
RNA 2: GCCCGCCUGUCACGCGGGC
Regarding B1, the binding result was “binds”.
